Source: patent US11434267B2, “Peptides having reduced toxicity that stimulate cholesterol efflux” (The Regents of the University of California, priority 2013, dated 2022)

Tests used:
Wistar rats = experiment: High-dose IV toxicity of ATI-5261 in rats (plasma ALT, AST, TG, cholesterol); type: in vivo, rat
Experimental: Peptides or peptidomeimetics of the invention can be evaluated for toxicity using known assays. Examples of such assays are illustrated in the Examples section. Toxicity is typically assayed in a rat, rabbit, mouse, monkey or dog model. In an illustrative assay such as that described in Example 1, a peptide is administered intravenously using a rabbit or rat model at doses of 3, 30, and 300 mg/kg and vehicle alone is also administered at 48 hour intervals for a total of four injections. Safety chemistry panels including plasma alanine aminotransferase (ALT), aspartate amino transferase (AST), and creatine kinase (CK) can then be determined in the blood. The presence of elevated levels of these enzymes in the blood compared to control normal values is indicative of toxicity. A peptide of the invention is typically considered to be non-toxic or to have little toxicity, when the results using the highest dose, 300 mg/kg in this illustrative assay, are equivalent (fall within the standard deviation) of the values measured for the control animals that received vehicle alone, or are no more than 2 or 3 times background obtained with vehicle alone. In some embodiments, a toxicity assay is performed where the toxicity of a peptide of the invention is compared to that to ATI-5261. […]
Cytotoxicity of an HDL mimetic peptide ATI-5261 at high doses was evaluated in rats and rabbits (FIG. 1). […]

human plasma = experiment: Cholesterol efflux activity of human plasma treated with lipid-free peptide (J774 cells); type: cell-based; details: plasma + 300 μg/ml peptide 5 min 4° C., diluted to 1%, cAMP treated J774
Experimental: (FIG. 33). To test whether CS6253 exerts anti-atherogenic effects in a biological milieu, human plasma was exposed (5 min) to lipid-free peptide. Interactions of CS6253 with HDL in plasma and activity of plasma to stimulate cholesterol efflux was assessed; the latter using J774 macrophages labeled with [3H]cholesterol. Panel A—Cholesterol efflux activity of plasma treated with lipid-free peptides. Human plasma was incubated with 300 μg/ml peptides for 5 minutes (4° C.), diluted to 1% in serum-free RPMI-1640 culture medium and immediately added to [3H]cholesterol-labeled J774 cells. […] Panel B—Induction of preβ HDL upon treatment of human plasma with CS6253. Plasma was exposed to a small amount of peptide relative to endogenous apoA-I (1:10 mole ratio, respectively) and formation of preβ HDL assessed by 2D non-denaturing gradient gel electrophoresis (NDGGE) and western blot analysis. […] The results are consistent with the production of authentic preβ HDL particles composed entirely of endogenous apoA-I.
To test whether T6991-2 exerts anti-atherogenic effects in a biological milieu, human plasma was exposed (5 min) to lipid-free peptide. Interactions of T6991-2 with HDL in plasma and activity of plasma to stimulate cholesterol efflux was assessed using J774 macrophages labeled with [3H]cholesterol. Panel A—Cholesterol efflux activity of plasma treated with lipid-free peptides. […]

ABCG1 = biological target: T1, ABCG1 (Homo sapiens, UniProt P45844); experiment: ABCG1 mediated cholesterol efflux from BHK cells stably transfected with ABCG1; type: cell-based; details: BHK-ABCG1 vs mock, 50 μg peptide/ml, time-course and 4 h
T1 construct: expressed in transfected cells; host or cells: BHK cells, stably transfected
Description: To further evaluate potential anti-atherogenic mechanisms of CS6253, BHK cells stably transfected with ABCG1 and mock-transfected control cells were labeled with [3H]cholesterol and used in efflux experiments. […] Panel A—Time-course for ABCG1 mediated cholesterol efflux from cells to lipid-free CS6253 peptide or CS6253:POPC complexes. […] Panel B—Comparison between CS6253 and ATI-5261 in mediating cellular cholesterol efflux via ABCG1. [3H]cholesterol labeled BHK cells (ABCG1 vs. mock transfected; left bars, control BHK, right bars, G1-BHK) were incubated with either lipid-free peptide or peptides formulated with POPC.

ATI-5261: HDL mimetic peptide, parent peptide with phenylalanine and arginine residues; toxic at high doses; used as positive control (EVRSKLEEWFAAFREFAEEFLARLKS)
plasma triglycerides and unesterified cholesterol (Wistar rats; IV): increased plasma triglycerides and cholesterol
cytotoxic response (plasma ALT, AST) (Wistar rats; IV 3, 30, 300 mg/kg at 48 h intervals, 4 injections): induced a cytotoxic response
capacity of treated plasma to stimulate cholesterol efflux via ABCA1 (human plasma): possessed greater capacity to stimulate cholesterol efflux
cholesterol efflux via ABCG1 (ABCG1): poorly active
